Measured values reported in publication PMC4161306, “Regulation of Arabidopsis Flowering by the Histone Mark Readers MRG1/2 via Interaction with CONSTANS to Modulate FT Expression” (PLoS Genetics, 2014).

Target: MRG2 chromodomain (residues 41-123) (Arabidopsis thaliana) (UniProt Q4V3E2)
Test: ITC; 25 C, MicroCal iTC200; 50 mM Tris pH 8.0, 100 mM NaCl; 0.2-0.4 mM protein in the cell, 2-4 mM peptide injected in 2 ul aliquots (20 injections); one-site model

Chain of MRG2 chromodomain (residues 41-123) (Arabidopsis thaliana) (Q4V3E2 41-123): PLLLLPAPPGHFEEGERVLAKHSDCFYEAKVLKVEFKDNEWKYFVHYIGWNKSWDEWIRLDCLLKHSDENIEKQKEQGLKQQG

| Substance | Kd |
| --- | --- |
| H3K4me3 peptide (residues 1-9) | 800 µM |
| H3K36me3 peptide (residues 31-41) | 690 µM |
